From patent US20200087364A1 (IMMATICS BIOTECHNOLOGIES, published 2020)

Target: T1, HLA-A*01:01 (human)
T1 construct: MHC class I monomer first loaded with a UV-sensitive peptide (not identified) that is cleaved by UV irradiation and exchanged for the tested peptide; captured on streptavidin plates, detected with anti-β2m; also called peptide-receptive MHC molecules
Experiment: UV-ligand exchange, anti-b2m ELISA
In short: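 Peptide–MHC complexes made by UV-ligand exchange of a UV-cleavable peptide; exchange yield measured by ELISA on streptavidin-coated plates, samples diluted 100-fold, 1 h 37 °C. Detection with 2 ug/ml HRP anti-β2m, TMB, A450; refolded HLA-A*02:01/MLA-001 monomer standards 15-500 ng/ml.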

STIRGELFF
peptide exchange yield: 20 to 50%

EVDIHTIHY
peptide exchange yield: 50 to 75%

SITDVDFIY
peptide exchange yield: 20 to 50%

TTDDTTAMASAS
peptide exchange yield: 20 to 50%

YTELVEEKY
peptide exchange yield: 50 to 75%

YSDLHTPGRY
peptide exchange yield: 50 to 75%

YLENSASWY
peptide exchange yield: > 75%

ARDPITFSF
peptide exchange yield: 20 to 50%

FTDSQGNDIK
peptide exchange yield: 50 to 75%

NFSDLVFTY
peptide exchange yield: 20 to 50%

TTQDELLVY
peptide exchange yield: 50 to 75%

EMEQQSQEY
peptide exchange yield: > 75%

YLEDRPLSQLY
peptide exchange yield: > 75%

ASDPASSTSCY
peptide exchange yield: 50 to 75%

QTDVERIKDTY
peptide exchange yield: 50 to 75%

SSDNYEHWLY
peptide exchange yield: > 75%

GSFSIQHTY
peptide exchange yield: 20 to 50%

FPAPPAHWFY
peptide exchange yield: 20 to 50%

QSLPEFGLTY
peptide exchange yield: 20 to 50%

SSDIVALGGFLY
peptide exchange yield: 50 to 75%

QLDSTLDSY
peptide exchange yield: 50 to 75%

FMVIAGMPLFY
peptide exchange yield: 50 to 75%

ESEMIKFASYY
peptide exchange yield: > 75%

VSELVTTGHY
peptide exchange yield: 50 to 75%

TSEISQNALMY
peptide exchange yield: > 75%

ASDLEPRELLSY
peptide exchange yield: 50 to 75%

MTEKFLFLY
peptide exchange yield: > 75%

STEERRLNY
peptide exchange yield: 50 to 75%

KPSAVKDSIY
peptide exchange yield: 20 to 50%

FTDYELKAY
peptide exchange yield: > 75%

TSRAANIPGY
peptide exchange yield: 10 to 20%

VTDSTTKIAY
peptide exchange yield: 50 to 75%

SSDPKAVMF
peptide exchange yield: 20 to 50%

KEVDPAGHSYI
peptide exchange yield: 20 to 50%

SSDFDPLVY
peptide exchange yield: > 75%

QLDSAVKNLY
peptide exchange yield: 50 to 75%

STDSASYY
peptide exchange yield: > 75%

LTDSTTRTTY
peptide exchange yield: 50 to 75%

VTEYAEEIYQY
peptide exchange yield: 50 to 75%

ITDEDEDMLSY
peptide exchange yield: 50 to 75%

FTSDTGLEY
peptide exchange yield: > 75%

TSEISQNALMYY
peptide exchange yield: 50 to 75%

EVYDGREHSAY
peptide exchange yield: 20 to 50%

ELCPLPGTSAY
peptide exchange yield: 20 to 50%

AADSNPSEL
peptide exchange yield: 20 to 50%

AFDDIATYF
peptide exchange yield: 20 to 50%

HLKILSPIY
peptide exchange yield: 50 to 75%

NVDQNQNSY
peptide exchange yield: 50 to 75%

QSLPEFGLTYY
peptide exchange yield: 20 to 50%

ASDDVRIEVGLY
peptide exchange yield: > 75%

VDPASNTY
peptide exchange yield: 20 to 50%

YEDHFPLLF
peptide exchange yield: 20 to 50%

TTSSAISWILY
peptide exchange yield: 50 to 75%

LTEKSHIRY
peptide exchange yield: 50 to 75%

ATEGDVLNY
peptide exchange yield: 50 to 75%

DTEFHGGLHY
peptide exchange yield: 50 to 75%
